Data: patent US20260014245A1

Experiments:
[1] = molecular target: DPP4/CD26 on human CD3 expressing T cells (human) (UniProt P27487); test: flow cytometry of human PBMCs, MERS-RBD - AF488 against CD3 - PerCP-Cy5
[2] = molecular target: MERS-CoV RBD (wild type, amino acids G372-L588, AviTag, Twin Strep tag, 6xHis) (MERS-CoV); test: rabbit DPP4

Chain of DPP4/CD26 on human CD3 expressing T cells (human) (P27487 whole entry, the tested form may be a part): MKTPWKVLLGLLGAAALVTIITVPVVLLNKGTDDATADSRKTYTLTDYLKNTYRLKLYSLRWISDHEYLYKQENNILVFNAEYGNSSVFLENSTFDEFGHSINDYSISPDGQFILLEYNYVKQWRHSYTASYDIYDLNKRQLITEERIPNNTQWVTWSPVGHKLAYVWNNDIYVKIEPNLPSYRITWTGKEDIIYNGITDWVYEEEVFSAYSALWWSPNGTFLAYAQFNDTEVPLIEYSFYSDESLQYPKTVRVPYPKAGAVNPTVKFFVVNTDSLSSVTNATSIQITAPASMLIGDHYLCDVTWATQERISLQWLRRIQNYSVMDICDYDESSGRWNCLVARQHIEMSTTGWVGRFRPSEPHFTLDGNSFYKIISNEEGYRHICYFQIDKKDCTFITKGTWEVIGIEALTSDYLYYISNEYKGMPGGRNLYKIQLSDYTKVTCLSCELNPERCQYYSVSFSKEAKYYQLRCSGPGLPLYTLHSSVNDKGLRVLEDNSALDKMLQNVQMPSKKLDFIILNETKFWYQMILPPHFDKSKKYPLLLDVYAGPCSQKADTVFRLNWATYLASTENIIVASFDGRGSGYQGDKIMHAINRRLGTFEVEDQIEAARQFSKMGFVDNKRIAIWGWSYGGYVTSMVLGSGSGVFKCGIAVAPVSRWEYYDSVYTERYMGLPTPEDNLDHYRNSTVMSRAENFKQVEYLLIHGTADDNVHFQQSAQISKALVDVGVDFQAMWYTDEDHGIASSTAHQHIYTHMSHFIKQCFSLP

Substance | CD3+ MERS-RBD+ quadrant frequency (percent of gated DAPI- lymphocytes) [1] | Kd [2]
MERS-CoV RBD (wild type, amino acids G372-L588, AviTag, Twin Strep tag, 6xHis) (ligand; other documents disagree on this pair) | 4.92 | 
recombinant rabbit DPP4 with a C-terminal 6xHis-tag (rbDPP4-His) (from UniProt A0A5F9CKR3 29-732) (receptor) |  | 34.3 nM
